# B1: Glucocorticoid receptor (Homo sapiens), P04150-1 (parent)
# chain: MDSKESLTPGREENPSSVLAQERGDVMDFYKTLRGGATVKVSASSPSLAVASQSDSKQRRLLVDFPKGSVSNAQQPDLSKAVSLSMGLYMGETETKVMGNDLGFPQQGQISLSSGETDLKLLEESIANLNRSTSVPENPKSSASTAVSAAPTEKEFPKTHSDVSSEQQHLKGQTGTNGGNVKLYTTDQSTFDILQDLEFSSGSPGKETNESPWRSDLLIDENCLLSPLAGEDDSFLLEGNSNEDCKPLILPDTKPKIKDNGDLVLSSPSNVTLPQVKTEKEDFIELCTPGVIKQEKLGTVYCQASFPGANIIGNKMSAISVHGVSTSGGQMYHYDMNTASLSQQQDQKPIFNVIPPIPVGSENWNRCQGSGDDNLTSLGTLNFPGRTVFSNGYSSPSMRPDVSSPPSSSSTATTGPPPKLCLVCSDEASGCHYGVLTCGSCKVFFKRAVEGQHNYLCAGRNDCIIDKIRRKNCPACRYRKCLQAGMNLEARKTKKKIKGIQQATTGVSQETSENPGNKTIVPATLPQLTPTLVSLLEVIEPEVLYAGYDSSVPDSTWRIMTTLNMLGGRQVIAAVKWAKAIPGFRNLHLDDQMTLLQYSWMFLMAFALGWRSYRQSSANLLCFAPDLIINEQRMTLPCMYDQCKHMLYVSSELHRLQVSYEEYLCMKTLLLLSSVPKDGLKSQELFDEIRMTYIKELGKAIVKREGNSSQNWQRFYQLTKLLDSMHEVVENLLNYCFQTFLDKTMSIEFPEMLAEIITNQIPKYSNGNIKKLLFHQK
# Variants of: B1
# Conditions: with ncoa2_mouse Ncoa2, Q61026
# ncoa2_mouse Ncoa2, Q61026, sequence (Q61026 whole entry): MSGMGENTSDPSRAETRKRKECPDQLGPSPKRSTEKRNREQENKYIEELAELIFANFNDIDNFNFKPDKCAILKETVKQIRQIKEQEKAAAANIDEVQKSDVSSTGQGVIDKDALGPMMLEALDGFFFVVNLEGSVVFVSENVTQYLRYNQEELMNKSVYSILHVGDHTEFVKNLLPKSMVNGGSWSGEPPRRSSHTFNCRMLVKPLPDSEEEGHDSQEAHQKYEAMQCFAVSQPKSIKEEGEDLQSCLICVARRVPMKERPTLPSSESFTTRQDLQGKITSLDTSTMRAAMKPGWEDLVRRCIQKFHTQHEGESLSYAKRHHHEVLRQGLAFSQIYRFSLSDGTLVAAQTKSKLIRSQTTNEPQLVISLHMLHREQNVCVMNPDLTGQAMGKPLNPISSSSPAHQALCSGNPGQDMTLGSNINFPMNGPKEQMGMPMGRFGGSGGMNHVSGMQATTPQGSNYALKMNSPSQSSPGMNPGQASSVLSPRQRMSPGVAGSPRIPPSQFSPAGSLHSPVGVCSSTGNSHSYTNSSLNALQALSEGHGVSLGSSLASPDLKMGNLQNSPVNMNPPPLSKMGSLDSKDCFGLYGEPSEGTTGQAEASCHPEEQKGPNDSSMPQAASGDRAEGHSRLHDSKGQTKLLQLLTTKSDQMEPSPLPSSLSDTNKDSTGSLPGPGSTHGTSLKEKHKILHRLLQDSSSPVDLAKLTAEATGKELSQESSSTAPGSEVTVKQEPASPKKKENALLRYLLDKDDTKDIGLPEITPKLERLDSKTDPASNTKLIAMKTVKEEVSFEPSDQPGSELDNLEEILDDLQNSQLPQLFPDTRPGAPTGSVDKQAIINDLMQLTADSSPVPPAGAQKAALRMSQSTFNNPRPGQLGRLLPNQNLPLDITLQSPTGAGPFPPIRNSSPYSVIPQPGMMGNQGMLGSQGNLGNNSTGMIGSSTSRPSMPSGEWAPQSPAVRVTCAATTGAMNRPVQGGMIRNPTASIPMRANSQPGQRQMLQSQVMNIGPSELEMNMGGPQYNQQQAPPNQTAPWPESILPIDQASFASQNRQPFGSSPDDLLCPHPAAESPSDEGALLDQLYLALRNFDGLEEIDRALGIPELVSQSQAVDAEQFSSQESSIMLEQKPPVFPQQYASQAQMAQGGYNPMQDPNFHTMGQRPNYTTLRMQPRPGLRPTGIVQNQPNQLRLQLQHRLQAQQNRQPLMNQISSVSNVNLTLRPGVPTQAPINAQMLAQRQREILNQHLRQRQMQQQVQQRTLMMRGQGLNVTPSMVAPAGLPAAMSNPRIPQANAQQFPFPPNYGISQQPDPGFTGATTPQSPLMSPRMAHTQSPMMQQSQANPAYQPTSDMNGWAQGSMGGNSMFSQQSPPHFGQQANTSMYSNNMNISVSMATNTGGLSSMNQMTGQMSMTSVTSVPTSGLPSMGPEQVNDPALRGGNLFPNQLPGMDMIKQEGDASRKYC
row,Variant,effect of a mutation on the interaction
1,H726R,with no effect

# Variants of: B1
# Conditions: with ncoa2_mouse Ncoa2, Q61026
# Remark: another data set of the same source
row,Variant,effect of a mutation on the interaction
1,H726R,decreasing interaction strength
